According to patent US20100291106A1 (Novartis, published 2010):

What was measured:
[1] = target: T1, human complement C3b protein (human, UniProt P01024 23-667; P01024 749-1663); test: cell-based or functional assay
[2] = target: T2, cynomolgus complement C3b protein (cynomolgus monkey (Macaca fascicularis)); test: cell-based or functional assay
[3] = target: T3, human C3d (human, UniProt P01024 1002-1303); test: cross reactivity, ELISA on C3d, anti-His detection
T3 construct: domain: C3d
Description: In order to determine whether the anti-C3b antibodies described herein can bind to complement pathway components iC3b and C3c, the following steps were performed: Directly add iC3b(complement Technologies A115), C3d (complement Technologies A117), or C3c (complement Technologies A116), at 2 μg/ml in Carbonate Buffer onto Coat Maxisorp plate Nunc (442404) at 100 μl per well. Seal plates and incubate at 4° C. overnight. Aspirate plates and wash 3 times with PBS/0.5% Tween 20. Block plates with Diluent (PBS, 4% BSA Fraction V (Fisher ICN16006980), 0.1% Tween 20 (Sigma P1379), 0.1% Triton X-100 (Sigma P234729)) and incubate for 2 h at room temperature or overnight at 4° C. Then wash plates once with PBS/0.5% Tween 20. Dilute Fabs at 100 nM and subsequent dilutions (or higher concentration if needed) in diluent and plate 100 μl per well. Incubate at room temperature for 1 h. Wash plates 3 times with PBS/0.5% Tween 20. Add 100 μl/well of anti-Histidine-HRP monoclonal detection antibody at 1:400 in diluent and incubate at room temperature for 1 h. Then wash 4 times with PBS/0.5% Tween 20. Add 100 μl of TMB substrate (Pierce 34028) and incubate at room temperature for up to 5 min. Add 50 μl of Stop solution (2N Sulfuric Acid) to each well and read plate at 450 nm and correct for plastic reading at 570 nm.

[4] = target: T1, human complement C3b protein; test: solution equilibrium titration (SET), ECL detection, Fab
[5] = target: T2, cynomolgus complement C3b protein; test: as above
[6] = target: T1, human complement C3b protein; test: SPR (Biacore), C3b captured by anti-C3d antibody, Fab as analyte
[7] = target: T2, cynomolgus complement C3b protein; test: as above
[8] = target: T1, human complement C3b protein; test: bead proximity assay, C3b-acceptor beads; competitor biotinylated fH
Description: (§1) For C3b-C3b and C3b-fP proximity, Fabs or IgGs respectively were pre-incubated with C3b-Acceptor beads (20 μg/ml) for 60 min at room temperature. C3b-Donor beads or fP-Donor beads (20 μg/ml) were then added, and the plate was incubated overnight at room temperature before reading. For C3b-fB and C3b-fH proximity, antibodies were pre-incubated with C3b-Acceptor beads (20 μg/ml) for 60 minutes at room temperature. Biotinylated fB(D24G/N260D) or fH were then added, and incubated for 60 minutes at room temperature. SA-Donor beads were then added (20 μg/ml) and the plate was incubated overnight at room temperature before reading. Plates were read on the BMG Pherastar (ex=680, em=520-620).

[9] = target: T1, human complement C3b protein; test: bead proximity assay, C3b-acceptor beads; competitor biotinylated fB(D24G/N260D)
Description: as §1

[10] = target: T4, human C5 (human, UniProt P01031 19-673; P01031 678-1676); test: cross reactivity, capture ELISA with anti-C5 capture antibody, anti-His detection
T4 construct: Captured by an anti-C5 antibody in the ELISA
T4 sequence (P01031 19-673 limits assumed, chain 1 of 2): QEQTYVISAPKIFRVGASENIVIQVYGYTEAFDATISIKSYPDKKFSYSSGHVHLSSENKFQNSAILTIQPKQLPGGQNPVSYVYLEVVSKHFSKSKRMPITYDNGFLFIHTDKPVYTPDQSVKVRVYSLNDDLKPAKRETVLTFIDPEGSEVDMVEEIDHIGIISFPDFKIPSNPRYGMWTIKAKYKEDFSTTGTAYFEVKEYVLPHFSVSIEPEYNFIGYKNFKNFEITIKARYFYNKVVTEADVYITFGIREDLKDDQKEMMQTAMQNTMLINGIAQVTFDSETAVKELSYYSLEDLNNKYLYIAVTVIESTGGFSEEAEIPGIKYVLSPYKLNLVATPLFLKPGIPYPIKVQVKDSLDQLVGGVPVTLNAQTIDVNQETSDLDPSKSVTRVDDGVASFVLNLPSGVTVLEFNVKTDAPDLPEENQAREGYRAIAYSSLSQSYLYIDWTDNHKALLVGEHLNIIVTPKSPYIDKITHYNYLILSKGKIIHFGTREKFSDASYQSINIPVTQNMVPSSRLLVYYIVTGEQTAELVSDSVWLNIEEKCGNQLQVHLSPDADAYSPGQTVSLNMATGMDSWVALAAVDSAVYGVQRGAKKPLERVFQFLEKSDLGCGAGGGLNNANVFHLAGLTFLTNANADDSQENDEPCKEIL
T4 sequence (P01031 678-1676 limits assumed, chain 2 of 2): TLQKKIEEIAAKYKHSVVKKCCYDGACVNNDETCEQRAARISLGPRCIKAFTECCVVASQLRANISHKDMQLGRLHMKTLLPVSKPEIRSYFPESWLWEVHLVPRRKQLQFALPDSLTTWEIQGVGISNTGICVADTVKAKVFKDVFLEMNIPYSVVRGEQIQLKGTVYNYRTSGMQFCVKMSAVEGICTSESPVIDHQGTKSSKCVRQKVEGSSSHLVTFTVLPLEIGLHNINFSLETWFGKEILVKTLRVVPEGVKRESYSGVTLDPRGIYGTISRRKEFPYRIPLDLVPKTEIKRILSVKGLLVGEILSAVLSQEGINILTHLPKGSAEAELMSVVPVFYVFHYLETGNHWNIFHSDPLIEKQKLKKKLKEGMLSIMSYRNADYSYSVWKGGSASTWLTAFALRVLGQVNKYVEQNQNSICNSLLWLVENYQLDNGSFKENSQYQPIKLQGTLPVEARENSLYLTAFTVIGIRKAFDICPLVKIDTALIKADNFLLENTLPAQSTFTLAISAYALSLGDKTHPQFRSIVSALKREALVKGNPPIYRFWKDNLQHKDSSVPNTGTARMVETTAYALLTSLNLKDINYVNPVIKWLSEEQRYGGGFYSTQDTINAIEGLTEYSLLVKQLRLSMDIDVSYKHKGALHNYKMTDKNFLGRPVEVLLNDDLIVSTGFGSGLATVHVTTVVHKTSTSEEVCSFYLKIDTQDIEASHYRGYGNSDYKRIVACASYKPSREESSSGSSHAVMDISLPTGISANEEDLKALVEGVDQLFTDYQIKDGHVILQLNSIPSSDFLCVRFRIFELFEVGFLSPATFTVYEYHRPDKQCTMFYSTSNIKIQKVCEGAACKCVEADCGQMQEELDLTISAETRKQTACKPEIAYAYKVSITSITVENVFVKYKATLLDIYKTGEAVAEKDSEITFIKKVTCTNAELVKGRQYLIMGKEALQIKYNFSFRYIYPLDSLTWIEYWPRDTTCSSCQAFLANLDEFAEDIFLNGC

T1 sequence (P01024 23-667 P314L, chain 1 of 2): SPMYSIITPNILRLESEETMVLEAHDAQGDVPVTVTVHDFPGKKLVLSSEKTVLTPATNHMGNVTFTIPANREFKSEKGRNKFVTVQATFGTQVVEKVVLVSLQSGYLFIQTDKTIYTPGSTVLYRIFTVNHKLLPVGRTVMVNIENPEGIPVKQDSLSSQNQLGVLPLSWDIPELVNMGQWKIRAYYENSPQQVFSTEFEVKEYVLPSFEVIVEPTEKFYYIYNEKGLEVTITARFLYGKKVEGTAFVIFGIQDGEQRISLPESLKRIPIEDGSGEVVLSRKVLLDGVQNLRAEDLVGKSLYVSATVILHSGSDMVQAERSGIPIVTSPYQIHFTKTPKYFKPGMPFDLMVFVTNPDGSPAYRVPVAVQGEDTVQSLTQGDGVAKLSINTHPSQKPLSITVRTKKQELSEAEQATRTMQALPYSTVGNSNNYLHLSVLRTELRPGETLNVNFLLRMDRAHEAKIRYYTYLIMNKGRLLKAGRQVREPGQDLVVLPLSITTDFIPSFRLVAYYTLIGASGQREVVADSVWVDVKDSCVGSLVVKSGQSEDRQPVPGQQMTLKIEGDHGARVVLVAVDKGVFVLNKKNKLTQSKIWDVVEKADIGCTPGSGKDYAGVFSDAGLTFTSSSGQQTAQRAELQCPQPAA
T1 sequence (P01024 749-1663, chain 2 of 2): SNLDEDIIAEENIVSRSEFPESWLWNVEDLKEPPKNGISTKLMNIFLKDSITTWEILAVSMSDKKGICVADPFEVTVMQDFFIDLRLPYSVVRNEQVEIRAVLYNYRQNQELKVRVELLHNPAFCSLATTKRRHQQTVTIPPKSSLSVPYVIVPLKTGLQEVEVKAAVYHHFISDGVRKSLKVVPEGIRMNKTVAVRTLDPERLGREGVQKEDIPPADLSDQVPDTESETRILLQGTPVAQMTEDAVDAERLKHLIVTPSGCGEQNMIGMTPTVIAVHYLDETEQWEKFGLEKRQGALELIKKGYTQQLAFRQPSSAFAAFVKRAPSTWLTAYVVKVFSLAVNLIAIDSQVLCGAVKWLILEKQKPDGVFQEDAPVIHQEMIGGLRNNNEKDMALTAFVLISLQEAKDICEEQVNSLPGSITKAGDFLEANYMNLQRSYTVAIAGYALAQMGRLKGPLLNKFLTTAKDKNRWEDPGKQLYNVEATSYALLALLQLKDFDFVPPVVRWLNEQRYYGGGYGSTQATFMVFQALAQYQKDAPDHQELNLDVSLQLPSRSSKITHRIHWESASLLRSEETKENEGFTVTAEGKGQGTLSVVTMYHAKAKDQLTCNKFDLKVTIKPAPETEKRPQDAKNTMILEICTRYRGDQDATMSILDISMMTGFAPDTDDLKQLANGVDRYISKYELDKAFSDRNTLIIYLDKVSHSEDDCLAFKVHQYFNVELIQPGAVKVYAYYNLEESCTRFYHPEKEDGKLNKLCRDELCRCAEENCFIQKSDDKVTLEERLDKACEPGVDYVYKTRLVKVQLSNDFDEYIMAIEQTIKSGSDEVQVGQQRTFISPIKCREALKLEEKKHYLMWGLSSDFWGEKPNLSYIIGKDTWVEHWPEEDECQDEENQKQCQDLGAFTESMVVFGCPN
T3 sequence (P01024 1002-1303 limits assumed): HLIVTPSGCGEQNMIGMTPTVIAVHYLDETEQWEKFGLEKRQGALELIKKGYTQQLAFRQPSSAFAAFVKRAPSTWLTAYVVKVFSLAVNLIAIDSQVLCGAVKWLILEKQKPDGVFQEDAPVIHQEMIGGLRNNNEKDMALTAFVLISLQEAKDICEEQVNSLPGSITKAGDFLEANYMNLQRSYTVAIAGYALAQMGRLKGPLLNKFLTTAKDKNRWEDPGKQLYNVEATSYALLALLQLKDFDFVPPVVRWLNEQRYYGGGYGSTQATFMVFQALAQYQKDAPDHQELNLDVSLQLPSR

B1: MOR09124 Fab (Fab, V domains shown)
VH: QVQLVESGGGLVQPGGSLRLSCAASGFTFSSYWMTWVRQAPGKGLEWVSSIKIKPDGYAASVKGRFTISRDNSKNTLYLQMNSLRAEDTAVYYCARLFYQYFARMDYWGQGTLVTVSS
VL: DIQMTQSPSSLSASVGDRVTITCRASQDISNYLNWYQQKPGKAPKLLIYAASNLQSGVPSRFSGSGSGTDFTLTISSLQPEDFATYYCQQYDSYSPTFGQGTKVEIKR
notes: HCDR2-matured derivative of parental MOR08305
- C3b Dep (nM), human serum, IC50 [1]: 16 nM
- HA (nM), 10% human serum, IC50 [1]: 44 nM
- MAC Dep (nM), human serum, IC50 [1]: 1 nM
- C3b Dep (nM), cyno serum, IC50 [2]: 73 nM
- HA (nM), 10% cyno serum, IC50 [2]: 101 nM
- MAC Dep (nM), cyno serum, IC50 [2]: 5 nM
- binding result [3]: no binding
- Kd [4]: 0.001 nM
- Kd [5]: 0.021 nM
- Kd [6]: 0.007 nM
- Kd [7]: 0.033 nM
- IC50 [8]: 1 nM
- IC50 [9]: 3 nM
- binding result [10]: no binding

B2: MOR09423 Fab (Fab, V domains shown)
VH: QVQLVQSGAEVKKPGASVKVSCKASGYTFTGYYINWVRQAPGQGLEWMGIISPNQGTTGYAQKFQGRVTMTRDTSISTAYMELSSLRSEDTAVYYCARGNYDHLDYWGQGTLVTVSS
VL: DIQMTQSPSSLSASVGDRVTITCRASQGISNYLNWYQQKPGKAPKLLIYDASTLQSGVPSRFSGSGSGTDFTLTISSLQPEDFATYYCQQDWHTLPVTFGQGTKVEIKR
notes: also called Fab 9423
- C3b Dep (nM), human serum, IC50 [1]: 14 nM
- HA (nM), 10% human serum, IC50 [1]: 48 nM
- MAC Dep (nM), human serum, IC50 [1]: 1 nM
- C3b Dep (nM), cyno serum, IC50 [2]: 66 nM
- HA (nM), 10% cyno serum, IC50 [2]: 83 nM
- MAC Dep (nM), cyno serum, IC50 [2]: 4 nM
- binding result [3]: no binding
- Kd [4]: 0.1 nM
- Kd [5]: 0.34 nM
- Kd [6]: 0.075 nM
- Kd [7]: 0.486 nM
- IC50 [8]: 0.08 nM
- IC50 [9]: 0.2 nM
- binding result [10]: no binding
